# From patent US8871909B2, “Antibodies inhibiting c-Met dimerization and uses thereof” (Pierre Fabre Medicament, priority 2007, dated 2014)
# B1: 11E1: murine anti-c-Met monoclonal antibody, IgG1 kappa; heavy chain SEQ ID No. 62, light chain SEQ ID No. 63 (antibody, V domains shown)
# VH: QVQLQQSGAELAKPGASVKMSCKASGYTFTSYWMNWVKQRPGQGLEWIGYINPTTGSTDYNQKLKDKATLTADKSSNTAYMQLSSLTSEDSAVYYCAIGGYGSWFAYWGQGTLVTVSA
# VL: QIVLTQSPAIMSASPGEKVTLTCSASSSVSSTYLYWYQQKPGSSPKLWIYTTSILASGVPARFSGSGSGTSYSLTISSMETEDAASYFCHQWSSYPFTFGSGTKLDIK
# modifications: mus musculus
# B2: 224G11: murine anti-c-Met monoclonal antibody, IgG1 kappa; heavy chain SEQ ID No. 18, light chain SEQ ID No. 21 (antibody, V domains shown)
# VH: EVQLQQSGPELVKPGASVKISCKTSGYIFTAYTMHWVRQSLGESLDWIGGIKPNNGLANYNQKFKGKATLTVDKSSSTAYMDLRSLTSEDSAVYYCARSEITTEFDYWGQGTALTVSS
# VL: DIVLTQSPASLAVSLGQRATISCRASESVDSYANSFMHWYQQKPGQPPKLLIYRASNLESGIPARFSGSGSRTDFTLTINPVEADDVATYYCQQSKEDPLTFGSGTKLEMK
# modifications: mus musculus
# Tests used:
# c-Met-Fc-Tag His = target: T1, c-Met-Fc-Tag His (Homo sapiens, UniProt P08581); assay: BIAcore epitope mapping on captured c-Met-Fc; assay type: binding
# T1 construct: c-Met extracellular domain fusion protein (10-15 g/dose/mouse) (R&D Systems, Catalog #358MT); purchased R&D systems 358-MT-CF
# T1 sequence (P08581 25-932 limits assumed): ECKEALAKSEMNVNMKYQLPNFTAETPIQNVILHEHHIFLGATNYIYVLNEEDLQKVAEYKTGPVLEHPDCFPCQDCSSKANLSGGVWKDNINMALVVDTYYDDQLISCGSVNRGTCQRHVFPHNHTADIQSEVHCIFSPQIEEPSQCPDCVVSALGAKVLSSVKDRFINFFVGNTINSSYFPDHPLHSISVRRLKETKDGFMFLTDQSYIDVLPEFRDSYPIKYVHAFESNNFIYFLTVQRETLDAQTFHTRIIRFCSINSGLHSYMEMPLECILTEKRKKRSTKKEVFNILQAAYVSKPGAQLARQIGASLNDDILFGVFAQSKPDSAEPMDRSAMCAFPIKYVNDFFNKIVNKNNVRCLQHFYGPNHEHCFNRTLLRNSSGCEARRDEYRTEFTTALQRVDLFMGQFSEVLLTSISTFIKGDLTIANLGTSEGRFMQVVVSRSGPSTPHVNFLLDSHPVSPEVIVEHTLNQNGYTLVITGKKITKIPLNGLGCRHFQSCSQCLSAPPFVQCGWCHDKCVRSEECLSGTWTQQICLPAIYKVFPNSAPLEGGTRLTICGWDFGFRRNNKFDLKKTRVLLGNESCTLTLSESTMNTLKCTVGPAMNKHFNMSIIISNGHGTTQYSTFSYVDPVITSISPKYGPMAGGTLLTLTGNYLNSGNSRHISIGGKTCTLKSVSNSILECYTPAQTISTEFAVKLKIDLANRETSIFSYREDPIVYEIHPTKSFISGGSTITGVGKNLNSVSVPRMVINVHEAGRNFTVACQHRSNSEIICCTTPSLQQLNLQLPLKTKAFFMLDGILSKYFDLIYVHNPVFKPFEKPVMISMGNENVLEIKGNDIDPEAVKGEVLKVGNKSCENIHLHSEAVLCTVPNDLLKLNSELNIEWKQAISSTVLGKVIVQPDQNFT
# Description: A couple of antibodies unable to bind at the same time on the antigen molecule are classified in the same group (identical or neighbouring binding sites). At the opposite when their respective binding sites are sufficiently distant to allow a simultaneous binding of both antibodies these later are classified into two different groups. In such experiments, the antigen is commonly used as the ligand (immobilized on the sensorchip) and the antibodies are used without any labelling as analytes (solution phase).
# All the experiments described have been done on a BIAcore X instrument (GE Healthcare Europe GmbH). A CM5 sensorchip (BIAcore) activated by a mouse anti-Tag-6His Mab (R&D System ref. MAB050) has been prepared following the manufacturer instructions by using the amine coupling kit (BIAcore). The running buffer (HBS-EP) and regeneration buffer (Glycine, HCl) are from BIAcore. A recombinant soluble version of the human HGF receptor produced as a chimeric molecule c-Met-Fc-Tag His was from R&D systems (ref. 358-MT-CF). […]
# The ability of an antibody “A” to block the binding of an antibody “B” is calculated by the ratio BIA/C=(R2A/B/R1B)×100: where R2A/B is the response corresponding to the binding of the MAb “B” when it was injected after Mab “A” and R1B is the response corresponding to the binding of the MAb “B” when it was injected first. […]
# NCI-H441 cells = assay: Wound healing (migration) assay with NCI-H441 cells; assay type: cell-based
# Description: HGF stimulates motility. To determine whether the anti-HGF antibodies were able to inhibit migration, NCI-H441 cells were grown to high density and a gap was introduced with a P200 pipette tip. Cells were then stimulate to migrate across the gap with HGF (100 ng/ml) in presence or in absence of 11E1. Wells with 11E1 alone were also evaluated. Each tested condition was evaluated as a sextuplicate and 3 independent experiments were performed. After an overnight incubation, cells were visualized with an Axio Vision Camera (objective ×4).
# NCI-H441 [1] = assay: Established xenograft NCI-H441 tumor model, 224G11 alone or with Navelbine (Example 15); assay type: in vivo, Swiss nude mice; conditions: 224G11 2 mg loading then 1 mg twice a week i.p.; Navelbine 8 mg/kg i.p. days 5, 12, 19
# Description: Briefly, NCI-H441 cells from ATCC were routinely cultured in RPMI 1640 medium, 10% FCS and 1% L-Glutamine. Cells were split two days before engraftment so that they were in exponential phase of growth. Ten million NCI-H441 cells were engrafted in PBS to 7 weeks old Swiss nude mice. […] Mice were treated i.p. with a loading dose of 2 mg of 224G11/mouse and then twice a week, for 43 days, with 1 mg of antibody/mouse. The 9G4 MAb was used as an isotype control.
# Navelbine® was given by i.p. injections at a dose of 8 mg/kg on days 5, 12, 19 post-cell injection. For combined therapy with both 224G11 and Navelbine®, the two compounds were administered separately. In this experience the 2 compounds were used at their optimal dosage. Tumor volume was measured twice a week and calculated by the formula: p/6×length×width×height.
# NCI-H441 [2] = assay: In vivo combination of 224G11 and Doxorubicin on NCI-H441 xenograft model; set-up: species or system Athymic nude mice; conditions: D11 to D39; Doxorubicin 5 mg/kg i.v.
# Description: NCI-H441 cells from ATCC were routinely cultured in RPMI 1640 medium, 10% FCS, 1% L-Glutamine. Cells were split two days before engraftment being in exponential phase of growth. Ten million NCI-H441 cells were engrafted to Athymic nude mice. […] Mice were treated i.p. either with a loading dose of 2 mg of 224G11 Mab/mouse and then twice a week with 1 mg of antibody/mouse or with 4 injections of Doxorubicin (D5, D12, D19, D26) at 5 mg/kg. A third group administered with the combine treatment was also included. Doxorubicin was given by i.v. injections. Tumor volume was measured twice a week and calculated by the formula: π/6×length×width×height and animal weights were monitored every day over the period of Doxorubicin treatment. Statistical analysis was performed at each measured time using either a t-test or a Mann-Whitney test. […] Results are represented in FIG. 46.
# NCI-H441 [3] = assay: In vivo combination of 224G11 and Navelbine on NCI-H441 xenograft model (Example 19); set-up: species or system Athymic nude mice; conditions: day 41 post first injection
# Description: NCI-H441 cells from ATCC were routinely cultured in RPMI 1640 medium, 10% FCS, 1% L-Glutamine. Cells were split two days before engraftment being in exponential phase of growth. Ten million NCI-H441 cells were engrafted to Athymic nude mice. […] Mice were treated i.p. either with a loading dose of 2 mg of 224G11 Mab/mouse and then twice a week with 1 mg of antibody/mouse until Day 38 or with 3 injections of Navelbine® (D5, D12, D19) at 8 mg/kg. A third group administered with the combine treatment was also included. Navelbine® was given by i.p. injections. Tumor volume was measured twice a week and calculated by the formula: π/6×length×width×height and animal weights were monitored every day over the period of Navelbine® treatment. Statistical analysis was performed at each measured time using either a t-test or a Mann-Whitney test. […] Results are represented in FIG. 45.
# MDA-MB-231 = MDA-MB-231 cells co-implanted with MRC5 cells xenograft; assay type: in vivo, Athymic nude mice; conditions: 2 mg loading dose then 1 mg twice a week i.p.
# Description: […] and MRC5 cells from ATCC were both cultured in DMEM medium, 10% FCS, 1% L-Glutamine. Cells were split two days before engraftment being in exponential phase of growth. Five million MDA-MB-231 cells and 500 000 MRC5 cells were co-injected s.c. to Athymic nude mice. […] Mice were treated i.p. either with a loading dose of 2 mg of 224G11 Mab/mouse and then twice a week with 1 mg of antibody/mouse. Tumor volume was measured twice a week and calculated by the formula: π/6×length×width×height.
Molecule,"BIA/C ratio, 2nd Ab (B) 5D5 (c-Met-Fc-Tag His; listed as antibody injected first (A), 5D5 second, 10 μg/ml, below 20% = blocks) [%]","epitope mapping, binding sites (c-Met-Fc-Tag His; sequential injections of 5D5 and 11E1 on captured c-Met-Fc)","effect on cell migration in presence of HGF (NCI-H441 cells; NCI-H441, HGF 100 ng/ml)","agonist effect on cell migration, added alone (NCI-H441 cells; NCI-H441, no HGF)",anti-tumor activity (NCI-H441 [1]),anti-tumor activity compared to the control group (NCI-H441 [2]),reduction of average tumor volume (NCI-H441 [3]) [%],median tumors growth compared to the control group (MDA-MB-231)
B1,84.2,bind clearly to two distant sites,full antagonist,no agonist effect,,,,
B2,,,,,as efficient as Navelbine®,significant anti-tumor activity,72,significant difference in median tumors growth
